The record followed here is patent US20070020267A1.

The term Kd denotes the constant that tells how readily two partners part at equilibrium. A low value points to higher affinity. Broadly, the IC50 is the concentration needed to halve the response being measured. High values mean weaker potency, low ones greater potency.

Assay [1] has as its target hVEGF (human) (UniProt P15692). The assay can be described thus: SPR. The following applies: Fab.
The target of assay [2] is hVEGF (human) (UniProt P15692). The assay can be described thus: SPR; 25 C. The following applies: Fab. For orientation: SPR reads the build-up and loss of mass on a sensor chip optically.
Assay [3] addresses hVEGF (human) (UniProt P15692). Description: SPR; 37 C. The following applies: Fab.
Assay [4] addresses hVEGF (human) (UniProt P15692). The assay can be described thus: competition; 25 C. The following applies: Fab.
Another assay addresses mVEGF (mouse) (UniProt Q00731). The assay can be described thus: competition; 25 C. Particulars: Fab.
Assay [5] deals with T1, murine VEGF (mVEGF) (mouse) (UniProt Q00731).
T1 sequence (looked up): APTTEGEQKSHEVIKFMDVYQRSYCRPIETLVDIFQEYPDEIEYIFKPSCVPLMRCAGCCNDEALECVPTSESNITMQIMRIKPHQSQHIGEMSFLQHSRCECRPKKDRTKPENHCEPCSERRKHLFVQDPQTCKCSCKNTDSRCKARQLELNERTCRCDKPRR
The assay can be described thus: BIAcore or solution binding ELISA, control Fab.

Chain of Y0317 Fab (VH): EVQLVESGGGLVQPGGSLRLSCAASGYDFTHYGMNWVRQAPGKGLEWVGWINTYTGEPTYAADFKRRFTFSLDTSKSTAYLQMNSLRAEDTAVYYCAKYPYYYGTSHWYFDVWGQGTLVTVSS
Chain of Y0317 Fab (VL): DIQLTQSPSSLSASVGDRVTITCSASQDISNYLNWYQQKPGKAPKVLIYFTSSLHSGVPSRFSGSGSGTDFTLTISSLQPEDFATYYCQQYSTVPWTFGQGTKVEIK

Regarding Avastin, the Kd turned out to be 2.9 nM in the assay with hVEGF (human) [1], 2.9 nM in the assay with hVEGF (human) [2] and 12.9 nM with hVEGF (human) [3]. This substance returned an IC50 with hVEGF (human) [4] of 1.1 nM.

With Y0317, the figures for the Kd with hVEGF (human) [2] and with hVEGF (human) [3] were 0.2 nM and 0.11 nM, respectively. Also, the figures for the IC50 with mVEGF (mouse) and with hVEGF (human) [4] were 300 nM and 0.02 nM, respectively.

Take Y0317 Fab: the Kd in assay [5] stood at 350 nM.
